From article PMC5496915, “Interactions between LHX3- and ISL1-family LIM-homeodomain transcription factors are conserved in Caenorhabditis elegans” (Scientific Reports, 2017)

Target: T1, CEH-14_(LIM1+2) as it stands in the tethered CEH-14–LIM-7 complex (C. elegans, UniProt P20271 42-168)
T1 construct: CEH-14, C. elegans, tandem LIM domains LIM1+2, residues 42-168; Joined on one chain with m29 through an 11-residue Gly/Ser linker; the whole chain is m27; also called LIM domains from CEH-14
T1 sequence (looked up): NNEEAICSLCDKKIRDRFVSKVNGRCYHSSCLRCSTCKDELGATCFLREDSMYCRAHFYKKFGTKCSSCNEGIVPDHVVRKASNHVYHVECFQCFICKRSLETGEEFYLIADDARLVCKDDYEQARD
Experiment: SAXS; tethered complex on one chain, 5.2 mg/mL, 50 mM Tris, 100 mM NaCl, 5 mM TCEP pH 8.0 (the legend says 20 mM Tris pH 8.0, 150 mM NaCl, 1 mM TCEP), 10 °C; low-resolution shape restoration
Settings: both partners purified

binding result: binds
B1: LIM-7LID as it stands in the tethered CEH-14–LIM-7 complex (domain or fragment, C. elegans)
chain: GIGPLMVQPATPHIDNTLGGPIDIQHFAQW
notes: Joined on one chain with m28 through an 11-residue Gly/Ser linker; the whole chain is m27; also called LID from LIM-7
